Tested on: CFP-fused N1
Assay: FRET acceptor bleaching, N1/C1 interaction in HEK293 cells
Format: cell-based, human
Settings: YFP-fused C1 and CFP-fused N1 coexpressed in HEK293 cells
Source text: (See Methods S1 for details).

B1: C1: full-length TRPV4 C terminus, residues 721-871 (protein, UniProt Q9HBA0 721-871, looked up, fragment)
chain: TVGQVSKESKHIWKLQWATTILDIERSFPVFLRKAFRSGEMVTVGKSSDGTPDRRWCFRVDEVNWSHWNQNLGIINEDPGKNETYQYYGFSHTVGRLRRDRWSSVVPRVVELNKNSNPDEVVVPLDSMGNPRCDGHQQGYPRKWRTDDAPL
  FRET interaction of N1 and C1: interact
